Series [1] has as its target T1, VP16-HA-Tap full length (Homo sapiens) (UniProt Q9UBU9).
T1 sequence: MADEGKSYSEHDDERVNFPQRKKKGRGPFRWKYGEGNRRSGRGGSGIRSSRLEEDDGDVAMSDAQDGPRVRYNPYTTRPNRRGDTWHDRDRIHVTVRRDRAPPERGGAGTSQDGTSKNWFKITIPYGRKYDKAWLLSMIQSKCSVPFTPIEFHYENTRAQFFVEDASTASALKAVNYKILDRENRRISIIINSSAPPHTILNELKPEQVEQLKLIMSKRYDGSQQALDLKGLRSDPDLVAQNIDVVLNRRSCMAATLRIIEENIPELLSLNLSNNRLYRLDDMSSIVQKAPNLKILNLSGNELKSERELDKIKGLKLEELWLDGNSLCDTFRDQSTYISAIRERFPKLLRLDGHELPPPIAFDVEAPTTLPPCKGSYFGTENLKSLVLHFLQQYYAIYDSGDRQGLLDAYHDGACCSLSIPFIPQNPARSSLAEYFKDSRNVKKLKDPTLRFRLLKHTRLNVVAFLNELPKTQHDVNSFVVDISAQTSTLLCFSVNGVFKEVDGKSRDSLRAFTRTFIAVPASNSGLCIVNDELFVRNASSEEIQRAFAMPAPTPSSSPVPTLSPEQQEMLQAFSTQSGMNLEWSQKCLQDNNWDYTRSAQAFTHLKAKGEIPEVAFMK
Description: one_hybrid.

Series [2] deals with T2, Tat-Tap full length (Homo sapiens) (UniProt Q9UBU9).
T2 sequence: T1 sequence
Description: cell_activity. The settings on record: 293T.

The substance HIV-1 TAR returned an activity in series [1] (yeast three-hybrid) of less than 4 mOD/ml. Substance MPMV CTE registered an activity in series [1] (yeast three-hybrid beta-gal, VP16 alone 11) of 602 mOD/ml. This substance returned an activity (fold activation) in series [2] of 20. iron response element: the activity in series [1] (yeast three-hybrid) is less than 4 mOD/ml. Turning to CTE antisense, the activity in series [1] (yeast three-hybrid) was less than 4 mOD/ml.

Values taken from patent US6261772.
